Experimental findings from patent publication US5854216A, “Marker for growth hormone-releasing factor receptors” (Universite de Montreal, priority 1996, dated 1998) are described below.

Test [1] addresses T1, GRF receptor of rat adenopituitary (rat, UniProt Q02644-2).
T1 sequence: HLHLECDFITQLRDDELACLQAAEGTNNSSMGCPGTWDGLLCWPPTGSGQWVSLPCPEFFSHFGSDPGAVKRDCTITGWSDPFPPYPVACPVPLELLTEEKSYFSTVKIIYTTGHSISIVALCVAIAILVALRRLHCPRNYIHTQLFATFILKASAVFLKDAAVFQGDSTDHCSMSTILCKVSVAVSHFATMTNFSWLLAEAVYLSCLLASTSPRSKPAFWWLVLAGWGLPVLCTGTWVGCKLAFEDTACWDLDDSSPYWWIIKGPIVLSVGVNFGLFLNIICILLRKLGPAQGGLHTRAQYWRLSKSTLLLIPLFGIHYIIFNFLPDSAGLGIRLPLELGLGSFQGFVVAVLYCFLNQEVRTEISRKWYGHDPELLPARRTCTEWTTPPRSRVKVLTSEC
The test is described as follows: displacement of 125I-Tyr10 hGRF(1-44)NH2 from rat anterior pituitary homogenate.

For test [2], the target named is T1, GRF receptor of rat adenopituitary.
Test [3] concerns the target T2, GRF receptors ([^125 I-Tyr^10 ]hGRF(1-44)NH2 binding sites in rat adenopituitary) (Rattus norvegicus, UniProt Q02644).
T2 construct: from tissue; host or cells: rat anterior pituitary homogenate
T2 sequence (Q02644 23-423 isoform Q02644-2 limits assumed): T1 sequence
As to the kind of experiment: Competitive binding assay with [^125 I-Tyr^10 ]hGRF(1-44)NH2 on anterior pituitary homogenates. The method, boiled down: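 Rat anterior pituitary homogenates (70 to 75 μg protein) in 50 mM Tris-HCl pH 7.4 with 5 mM EDTA, 5 mM MgCl2, 0.42% BSA were competed with 35-50 pM radioligand against analogues at 0-1000 nM. Non-specific binding defined with 2.4 μM rGRF(1-29)NH2; 60 min at 23° C, stopped by centrifugation, pellet gamma-counted. hGRF(1-29)NH2 run in each experiment as reference.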

In test [4] the target is T3, GRF receptor (adenylate cyclase activity in rat adenopituitary) (Rattus norvegicus, UniProt Q02644).
T3 construct: from tissue; host or cells: rat anterior pituitary homogenate
T3 sequence (Q02644 23-423 isoform Q02644-2 limits assumed): T1 sequence
As to the kind of experiment: Adenylate cyclase assay on anterior pituitary homogenates (cAMP by HPLC). The test is classed as biochemical. As to conditions: for IC50: 50% of maximal cAMP accumulation induced by 1 μM hGRF(1-29)NH2. The procedure:
The adenylate cyclase activity Nε-CF-[Lys^31 ]hGRF was performed on anterior pituitary homogenates as previously described (Lefrangois L. and Gaudreau P., J. Chromatogr., 1993, 619:116-120). Briefly, anterior pituitaries (pit.) were dissected out, rinsed and homogenized for 8 sec with a Micro Ultrasonic Cell Disrupter™, in ice-cold 20 mM Tris-HCl buffer (pH 7.5) containing 2 mM MgCl2 and 250 mM sucrose (1 pit./0.5 ml).
Samples of anterior pituitary homogenates (30-40 μg protein) were incubated in 1.5 ml Eppendorf™ tubes with 30 mM Tris-HCl, 5 mM MgCl2, 0.5 mM EGTA, containing 0.5 mM ATP, 1 mM IBMX, 10 μM GTP and an ATP regenerating system consisting of 2 mM creatine phosphate, 0.1 mg/ml creatine kinase and, 0.1 mg/ml myokinase in a final volume of 120 μl. Incubations were initiated by adding 20 μl of the homogenate to the reaction mixture which had previously been equilibrated at 37° C. for 2 min. The reactions were carried out for 8 min at 37° C. and stopped by heating the samples in boiling water for 4 min. Samples were centrifuged (12000 g, 5 min, 4° C.) and supernatants were filtered through 0.45 μm Millex HV4 ™ filters and transferred to autosampler vials for HPLC quantification of cAMP.

For test [5], the target named is T1, GRF receptor of rat adenopituitary. The source holds these as a separate data set.
The mark [6] stands for this setting: Table 11, mean±SD of 2 or mean±SE of 3 experiments for analogues, mean±SE of 11 for hGRF(1-29)NH2.
Setting [7] is: Table 12, mean±SD of 2 or mean±SE of 3 to 6 experiments, 10 for hGRF(1-29)NH2.

Where two headings read alike, the source gives them in different places. Square brackets hold non-standard residues; d marks the D form. Ends that are not written are not given here. Peptide text beside a SMILES is read from it.

“Lys^22 ! hGRF(1-29)NH2 (from UniProt P01286) (peptide)” returned a Relative affinity (%) against hGRF(1-29)NH2 in test [1] of 1040%. For the same compound, in test [2], the adenylate cyclase activity: EC50 of cAMP accumulation (column head prints IC50) worked out at 2.63 nM and the adenylate cyclase activity: Relative activity (%) against hGRF(1-29)NH2 worked out at 1400%.
For the compound “Ala^8,Ala^9,Ala^15,Ala^22 ! hGRF(1-29)NH2 (from UniProt P01286) (peptide)”, in test [1], the Relative affinity (%) against hGRF(1-29)NH2 was determined as 774%. In addition, in test [2], the adenylate cyclase activity: EC50 of cAMP accumulation (column head prints IC50) came out at 2.88 nM and the adenylate cyclase activity: Relative activity (%) against hGRF(1-29)NH2 came to 1270%.
With “Ala^8,Ala^15,Ala^22 ! hGRF(1-29)NH2 (from UniProt P01286) (peptide)”, the Relative affinity (%) against hGRF(1-29)NH2 in test [1] worked out at 960%. Besides, the adenylate cyclase activity: Relative activity (%) against hGRF(1-29)NH2 in test [2] was 1410%.
On to “YADAIFTASYRKVLAQLSARKALQDIMSR-NH2 [Ala^8, Ala^15, Ala^22]”, for which the results for the IC50 in test [3] (setting [6]) and in test [4] (setting [7]) were 0.25 ± 0.07 nM and 2.6 ± 0.7 nM, respectively.
In test [1], “Nε-5-carboxyfluoresceinyl-Lys^31 !hGRF(1-44)NH2 (from UniProt P01286) (peptide)” had a half-inhibitory concentration (IC50) of 3.65 nM and a Relative affinity (%) against hGRF(1-29)NH2 of 73%. Further, in test [5], the adenylate cyclase activity: EC50 of cAMP accumulation (column head prints IC50) worked out at 67 nM and the adenylate cyclase activity: Relative activity (%) against hGRF(1-29)NH2 came to 55%.
As for `CC[C@H](C)[C@H](NC(=O)[C@H](C)NC(=O)[C@H](CC(=O)O)NC(=O)[C@H](C)NC(=O)[C@@H](N)Cc1ccc(O)cc1)C(=O)N[C@@H](Cc1ccccc1)C(=O)N[C@H](C(=O)N[C@@H](CC(N)=O)C(=O)N[C@@H](CO)C(=O)N[C@@H](Cc1ccc(O)cc1)C(=O)N[C@@H](CCCNC(=N)N)C(=O)N[C@@H](CCCCN)C(=O)N[C@H](C(=O)N[C@@H](CC(C)C)C(=O)NCC(=O)N[C@@H](CCC(N)=O)C(=O)N[C@@H](CC(C)C)C(=O)N[C@@H](CO)C(=O)N[C@@H](C)C(=O)N[C@@H](CCCNC(=N)N)C(=O)N[C@@H](CCCCN)C(=O)N[C@@H](CC(C)C)C(=O)N[C@@H](CC(C)C)C(=O)N[C@@H](CCC(N)=O)C(=O)N[C@@H](CC(=O)O)C(=O)N[C@H](C(=O)N[C@@H](CCSC)C(=O)N[C@@H](CO)C(=O)N[C@@H](CCCNC(=N)N)C(N)=O)[C@@H](C)CC)C(C)C)[C@@H](C)O` [hGRF(1-29)NH2, reference compound], the IC50 worked out at 2.67 ± 0.12 nM in test [3] (Table 4, mean±SD of 2 experiments in triplicate for analogues, mean±SE of 29 experiments for hGRF(1-29)NH2) and 36.7 ± 5.5 nM in test [4] (Table 5, mean±SD of 2 experiments (analogue), mean±SE of 10 (hGRF(1-29)NH2)).
Turning to `CC[C@H](C)[C@H](NC(=O)[C@H](C)NC(=O)[C@H](CC(=O)O)NC(=O)[C@@H](C)NC(=O)[C@@H](N)Cc1ccc(O)cc1)C(=O)N[C@@H](Cc1ccccc1)C(=O)N[C@H](C(=O)N[C@@H](CC(N)=O)C(=O)N[C@@H](CO)C(=O)N[C@H](Cc1ccc(O)cc1)C(=O)N[C@@H](CCCNC(=N)N)C(=O)N[C@@H](CCCCN)C(=O)N[C@H](C(=O)N[C@@H](CC(C)C)C(=O)N[C@H](C)C(=O)N[C@@H](CCC(N)=O)C(=O)N[C@@H](CC(C)C)C(=O)N[C@@H](CO)C(=O)N[C@@H](C)C(=O)N[C@@H](CCCNC(=N)N)C(=O)N[C@H](CCCCN)C(=O)N[C@@H](CC(C)C)C(=O)N[C@@H](CC(C)C)C(=O)N[C@@H](CCC(N)=O)C(=O)N[C@@H](CC(=O)O)C(=O)N[C@H](C(=O)N[C@@H](CCSC)C(=O)N[C@@H](CO)C(=O)N[C@@H](CCCNC(=N)N)C(N)=O)[C@@H](C)CC)C(C)C)[C@@H](C)O` [D-Ala^2, D-Tyr^10, D-Ala^15, D-Lys^21] (H-Y[dA]DAIFTNS[dY]RKVL[dA]QLSAR[dK]LLQDIMSR-NH2), the values for the IC50 in test [3] (setting [6]) and in test [4] (setting [7]) were 31.6 ± 11.7 nM and 136 ± 50 nM, respectively.
For the compound `CC[C@H](C)[C@H](NC(=O)[C@H](C)NC(=O)[C@H](CC(=O)O)NC(=O)[C@@H](C)NC(=O)[C@@H](N)Cc1ccc(O)cc1)C(=O)N[C@@H](Cc1ccccc1)C(=O)N[C@H](C(=O)N[C@@H](CC(N)=O)C(=O)N[C@@H](CO)C(=O)N[C@H](Cc1ccc(O)cc1)C(=O)N[C@@H](CCCNC(=N)N)C(=O)N[C@@H](CCCCN)C(=O)N[C@H](C(=O)N[C@@H](CC(C)C)C(=O)N[C@H](C)C(=O)N[C@@H](CCC(N)=O)C(=O)N[C@@H](CC(C)C)C(=O)N[C@@H](CO)C(=O)N[C@@H](C)C(=O)N[C@@H](CCCNC(=N)N)C(=O)N[C@@H](CCCCN)C(=O)N[C@@H](CC(C)C)C(=O)N[C@@H](CC(C)C)C(=O)N[C@@H](CCC(N)=O)C(=O)N[C@@H](CC(=O)O)C(=O)N[C@H](C(=O)N[C@@H](CCSC)C(=O)N[C@@H](CO)C(=O)N[C@@H](CCCNC(=N)N)C(N)=O)[C@@H](C)CC)C(C)C)[C@@H](C)O` [D-Ala^2, D-Tyr^10, D-Ala^15] (H-Y[dA]DAIFTNS[dY]RKVL[dA]QLSARKLLQDIMSR-NH2), the IC50 was determined as 13.1 ± 0.9 nM in test [3] (setting [6]) and 176 ± 87 nM in test [4] (setting [7]).
With “YADAIFTAAYRKVLAQLSARKALQDIMSR-NH2 [Ala^8, Ala^9, Ala^15, Ala^22]”, the IC50 in test [3] (setting [6]) stood at 0.31 ± 0.14 nM; in test [4] (setting [7]), 2.88 ± 1.01 nM.
“D-Ala^2,D-Tyr^10,D-Ala^15,D-Lys^21 ! hGRF(1-29)NH2 (from UniProt P01286) (peptide)” gave a Relative affinity (%) against hGRF(1-29)NH2 in test [1] of 8%. In test [2], the adenylate cyclase activity: Relative activity (%) against hGRF(1-29)NH2 is 27%.
As for `CC[C@H](C)[C@H](NC(=O)[C@H](C)NC(=O)[C@H](CC(=O)O)NC(=O)[C@H](C)NC(=O)[C@@H](N)Cc1ccc(O)cc1)C(=O)N[C@@H](Cc1ccccc1)C(=O)N[C@H](C(=O)N[C@H](CC(N)=O)C(=O)N[C@@H](CO)C(=O)N[C@@H](Cc1ccc(O)cc1)C(=O)N[C@@H](CCCNC(=N)N)C(=O)N[C@@H](CCCCN)C(=O)N[C@H](C(=O)N[C@@H](CC(C)C)C(=O)NCC(=O)N[C@@H](CCC(N)=O)C(=O)N[C@@H](CC(C)C)C(=O)N[C@@H](CO)C(=O)N[C@@H](C)C(=O)N[C@@H](CCCNC(=N)N)C(=O)N[C@@H](CCCCN)C(=O)N[C@H](CC(C)C)C(=O)N[C@@H](CC(C)C)C(=O)N[C@@H](CCC(N)=O)C(=O)N[C@@H](CC(=O)O)C(=O)N[C@H](C(=O)N[C@@H](CCSC)C(=O)N[C@@H](CO)C(=O)N[C@@H](CCCNC(=N)N)C(N)=O)[C@@H](C)CC)C(C)C)[C@@H](C)O` [D-Ans^8, D-Leu^22], the figures for the IC50 in test [3] (setting [6]) and in test [4] (setting [7]) were 4.9 ± 3.25 nM and 67 ± 24 nM, respectively.
“YADAIFTNSYRKVLGQLSARKKLQDIMSR-NH2 [Lys^22]” yielded a Hill coef. in test [3] (Table 11) of 0.62 ± 0.06. For the same compound, the IC50 in test [3] (setting [6]) is 0.23 ± 0.04 nM; in test [4] (setting [7]), 2.63 ± 0.64 nM. The Relative affinity in test [3] (Table 11, ratio IC50 of hGRF(1-29)NH2 /IC50 analogue) is 1043 ± 181%. The “biological activity compared to that of native GRF” value in test [3] (rat adenopituitary) was “preserved or increased”. Besides, the Relative activity in test [4] (Table 12, ratio EC50 of hGRF(1-29)NH2 /EC50 analogue) came out at 1395 ± 339%.
As to “D-Ala^2,D-Tyr^10,D-Ala^15 ! hGRF(1-29)NH2 (from UniProt P01286) (peptide)”, the Relative affinity (%) against hGRF(1-29)NH2 in test [1] was determined as 18%. Besides, the adenylate cyclase activity: Relative activity (%) against hGRF(1-29)NH2 in test [2] came out at 21%.
Compound “D-Ans^8,D-Leu^22 ! hGRF(1-29)NH2 (from UniProt P01286) (peptide)” gave a Relative affinity (%) against hGRF(1-29)NH2 in test [1] of 49%. Besides, the adenylate cyclase activity: Relative activity (%) against hGRF(1-29)NH2 in test [2] worked out at 55%.
